The results in this text go back to patent US20240376207A1 (JIANGSU HENGRUI PHARMACEUTICALS, published 2024).

The target in test [1] is T1, human IgG1 Fc-tagged mouse PVRIG (m-PVRIG-hIgG1 Fc) (mouse, UniProt A0A1B0GS01 35-165).
T1 construct: bought from Acrobiosystems; also called Mouse PVRIG-Fc; mouse PVRIG recombinant protein; not shown: human IgG1 Fc tag of the Acrobiosystems product, and any linker to it
T1 sequence: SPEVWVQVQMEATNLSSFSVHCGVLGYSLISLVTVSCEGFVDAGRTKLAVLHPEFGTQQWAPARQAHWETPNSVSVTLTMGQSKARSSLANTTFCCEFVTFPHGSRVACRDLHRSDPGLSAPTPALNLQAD
The test is described as follows: ELISA, coated antigen. The method, then: (§1) ELISA assay was used to detect binding properties of anti-PVRIG antibodies. […] After the antibody was added, the activity of the binding of the antibody to the antigen was detected by adding a secondary antibody (HRP-conjugated anti-primary antibody Fc antibody) and HRP substrate TMIB.
(§2) A human, cynomolgus monkey, or mouse PVRIG protein (at a concentration of 1 μg/mL) was coated on a 96-well microplate at 100 μL per well, and incubated overnight at 4° C. The plate was washed three times with wash buffer at 250 μL per well. For each wash, the plate was shaken for 10 s to ensure adequate cleaning. A blocking solution (PBS+0.05% Tween20+1% BSA) was added at 300 μL/well, and the plate was incubated at room temperature for 1 h. The plate was washed three times with wash buffer at 250 μL per well. For each wash, the plate was shaken for 10 s to ensure adequate cleaning. Dilutions of the test anti-PVRIG antibodies were added at 100 μL/well. The plate was incubated at 37° C. for 1 h. The plate was washed three times with wash buffer at 250 μL per well. The […] anti-human IgG secondary antibody (Sigma, A8667) was added at 100 μL per well. The plate was incubated at 37° C. for 1 h. The plate was washed three times with wash buffer at 250 μL per well. TMB was added at 100 μL/well, and the plate was incubated in the dark for 15 min. 0.16 M sulfuric acid was added at 50 μL/well. The OD values at 450 nm were read by using a Thermo MultiSkanFc microplate reader, and the EC₅₀ values of the binding of the anti-PVRIG antibodies to PVRIG were calculated.
A general note: In an ELISA, binding on a coated surface is turned into a signal by an enzyme label.

In test [2] the target is T2, his-tagged human PVRIG (h-PVRIG-his) recombinant protein (human, UniProt Q6DKI7 41-171, limits assumed).
T2 construct: bought from Acrobiosystems; also called Human PVRIG-his; human PVRIG recombinant protein; not shown: his tag
T2 sequence (looked up): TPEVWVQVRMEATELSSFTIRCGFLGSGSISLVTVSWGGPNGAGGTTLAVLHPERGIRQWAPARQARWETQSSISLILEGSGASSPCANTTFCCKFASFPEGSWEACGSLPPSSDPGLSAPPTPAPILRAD
The test is described as follows: ELISA, coated antigen. The method, then: as §1, §2

Test [3] deals with T3, his-tagged cynomolgus monkey PVRIG (cyno-PVRIG-his) recombinant protein (cynomolgus monkey).
T3 construct: expressed in HEK293, purified by Ni-NTA; also called Monkey PVRIG-his; cynomolgus monkey PVRIG recombinant protein
T3 chain: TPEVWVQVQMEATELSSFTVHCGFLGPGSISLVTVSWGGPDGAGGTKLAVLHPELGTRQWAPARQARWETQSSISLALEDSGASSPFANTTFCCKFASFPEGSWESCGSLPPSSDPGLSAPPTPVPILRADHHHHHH
The test is described as follows: ELISA, coated antigen. The method, then: as §1, §2

For test [4], the target named is T4, human PVRIG expressed on cells (human, UniProt Q6DKI7 41-326).
T4 sequence (looked up): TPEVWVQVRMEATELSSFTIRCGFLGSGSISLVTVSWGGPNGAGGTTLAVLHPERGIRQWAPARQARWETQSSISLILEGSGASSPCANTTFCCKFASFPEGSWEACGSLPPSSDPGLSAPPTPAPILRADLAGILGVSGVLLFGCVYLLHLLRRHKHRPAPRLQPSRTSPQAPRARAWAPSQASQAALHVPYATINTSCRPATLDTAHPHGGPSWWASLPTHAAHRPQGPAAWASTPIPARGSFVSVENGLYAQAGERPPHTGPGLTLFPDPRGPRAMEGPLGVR
The test is described as follows: cell-based or functional assay.

The target of test [5] is T4, human PVRIG expressed on cells. The test is described as follows: cell-based or functional assay. This is another data set of the same source.
In test [6] the target is T2, his-tagged human PVRIG (h-PVRIG-his) …. The test can be described thus: BLI (Fortebio), antibody on Protein A sensor, 1:1 fit. The method, then: A Protein A biosensor (Fortebio, #18-5010) was immersed in 200 μL of KB buffer (PBS, pH 7.4, 0.02% tween-20, 0.1% BSA) for 60 s for the wetting treatment. Then, the anti-PVRIG antibody was diluted to 10 μg/mL with the KB buffer, and the sensor was immersed in 200 μL of the solution until the reading was 1.2 nm. The sensor was immersed in the KB buffer for 100 s to elute excess antibody. The his-tagged human PVRIG was diluted in a 2-fold gradient to 64 nM-4 nM with the KB buffer. The sensor was immersed in the solution for 300 s for binding. The sensor was immersed in the KB buffer for 600 s for dissociation. The data were fitted in a dynamic 1:1 binding mode.

Test [7] addresses T4, human PVRIG expressed on cells. The test is described as follows: FACS, cells overexpressing target. The method, then:
The expression plasmid carrying human or cynomolgus monkey PVRIG gene sequence was transfected into HEK293 cells, and the over-expressing stable transfection monoclonal cell strain was obtained by antibiotic screening and infinite dilution. Overexpressing cells were seeded into a 96-well plate at 2×10⁵ cells/per well. The cells were centrifuged at 300 g for 5 min, the supernatant was then removed, 100 μL of the test antibody was added, and the mixture was incubated at 4° C. for 1 h. The mixture was centrifuged, the supernatant was removed, the plate was washed 3 times with 200 μL of wash buffer (PBS+2% FBS), and then 100 μL of an anti-human IgG secondary antibody (Invitrogen, A-11013) labeled with Alexa Fluor 488 diluted at 1:500 was added. The mixture was incubated at 4° C. for 1 h. The plate was centrifuged, and the supernatant was removed. The plate was washed 3 times with 200 μL of wash buffer (PBS+2% FBS). The cells were resuspended in 100 μL of PBS and tested on a flow cytometer (BD FACS Calibur or BD FACS Canto_II).
Binding of the humanized anti-PVRIG/TIGIT bispecific antibodies to human and cynomolgus monkey PVRIG and their blocking of the ligand of human PVRIG were detected according to the methods of Examples 4, 5 and 6.

B1: anti-PVRIG antibody 39 (antibody, human IgG4 S228P, F234A L235A, V domains shown)
VH: QVQLVESGGGSVQAGGSLRLSCAASRYTSRTDCMGWFRQAPGKEREGVAHIDSDGIPRYVESVKGRFTISQDHAKNTLYLQMNSLKPEDSATYYCVVGFKFGDYCAPNDWGQGTQVTVSS
notes: no light chain
One may read the EC50 as the midpoint of the concentration-response curve. For orientation: Kd means the constant that tells how readily two partners part at equilibrium. One may read the koff as a measure of how fast the partners let go of each other. As usually defined, the kon is the second-order rate constant of association. For the molecule B1, the binding result in test [1] is on record as “no binding”. For the same molecule, in test [2], the EC50 stood at 0.27 nM. Further, the concentration for a half-maximal effect (EC50) in test [3] was determined as 0.16 nM. For the same molecule, the “PVRIG reporter gene cell activity EC50” value in test [4] came out at 0.06 nM. Further, in test [5], the “NK92 killing of K562, killing activity (%), 20 nM antibody” value (“NK92 killing … (%), 20 nM antibody” below) amounted to 32% and the “NK92 killing of K562, killing activity (%), 100 nM antibody” value (“NK92 killing … (%), 100 nM antibody” below) was determined as 30%. Also, in test [6], the Kd was determined as 0.696 nM, the koff stood at 0.000169 s⁻¹ and the kon was 242000 M⁻¹ s⁻¹.

B2: anti-PVRIG antibody 38 (antibody, human IgG4 S228P, F234A L235A, V domains shown)
VH: QVQLVESGGGSVQAGGSLRLSCAASPSTYGPSDMAWFRQAPGKQREGVATISAAGRLTYYTDSVRGRFTISRDNAKNTMYLQMNSLKPEDTAMYYCAADFAGGSSLFADYKYWGQGTQVTVSS
notes: no light chain
On to B2, for which the binding result in test [1] is given as “no binding”. In addition, the EC50 in test [2] stood at 0.26 nM. Also, the EC50 in test [3] was 0.4 nM. Further, the “PVRIG reporter gene cell activity EC50” value in test [4] was found to be 0.2 nM. For the same molecule, in test [5], the “NK92 killing … (%), 20 nM antibody” value was 29% and the “NK92 killing … (%), 100 nM antibody” value was 27%. For the same molecule, in test [6], the dissociation constant Kd stood at 2.17 nM, the koff is 0.000287 s⁻¹ and the kon amounted to 132000 M⁻¹ s⁻¹.

B3: humanized anti-PVRIG/TIGIT bispecific antibody 1708-20H5 (bispecific antibody, human IgG4 S228P, kappa)
heavy: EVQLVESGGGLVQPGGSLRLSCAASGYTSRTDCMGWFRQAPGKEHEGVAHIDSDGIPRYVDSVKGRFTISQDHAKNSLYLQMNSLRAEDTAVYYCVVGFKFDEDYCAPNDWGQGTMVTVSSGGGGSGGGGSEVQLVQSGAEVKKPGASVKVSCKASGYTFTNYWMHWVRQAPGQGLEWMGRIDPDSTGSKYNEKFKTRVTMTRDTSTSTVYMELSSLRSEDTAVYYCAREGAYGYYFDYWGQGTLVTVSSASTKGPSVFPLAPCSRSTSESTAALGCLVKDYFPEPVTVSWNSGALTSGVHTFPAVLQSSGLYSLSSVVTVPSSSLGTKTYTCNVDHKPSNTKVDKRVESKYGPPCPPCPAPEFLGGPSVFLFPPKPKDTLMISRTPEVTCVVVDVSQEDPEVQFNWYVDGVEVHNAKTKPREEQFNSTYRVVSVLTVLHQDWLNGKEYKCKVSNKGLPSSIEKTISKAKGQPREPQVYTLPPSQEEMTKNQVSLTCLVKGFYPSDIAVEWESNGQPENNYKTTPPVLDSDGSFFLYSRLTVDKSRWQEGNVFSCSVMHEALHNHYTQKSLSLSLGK
light: DIQMTQSPSSLSASVGDRVTITCRASENIYSYLAWYQQKPGKSPKLLIYNARTLAEGVPSRFSGSGSGTDFTLTISSLQPEDFATYYCQYHSGSPLPFGGGTKVEIKRTVAAPSVFIFPPSDEQLKSGTASVVCLLNNFYPREAKVQWKVDNALQSGNSQESVTEQDSKDSTYSLSSTLTLSKADYEKHKVYACEVTHQGLSSPVTKSFNRGEC
B3 displayed an EC50 in test [7] of 0.075 nM.

B4: humanized anti-PVRIG/TIGIT bispecific antibody 1708-30H2 (bispecific antibody, human IgG4 S228P, kappa)
heavy: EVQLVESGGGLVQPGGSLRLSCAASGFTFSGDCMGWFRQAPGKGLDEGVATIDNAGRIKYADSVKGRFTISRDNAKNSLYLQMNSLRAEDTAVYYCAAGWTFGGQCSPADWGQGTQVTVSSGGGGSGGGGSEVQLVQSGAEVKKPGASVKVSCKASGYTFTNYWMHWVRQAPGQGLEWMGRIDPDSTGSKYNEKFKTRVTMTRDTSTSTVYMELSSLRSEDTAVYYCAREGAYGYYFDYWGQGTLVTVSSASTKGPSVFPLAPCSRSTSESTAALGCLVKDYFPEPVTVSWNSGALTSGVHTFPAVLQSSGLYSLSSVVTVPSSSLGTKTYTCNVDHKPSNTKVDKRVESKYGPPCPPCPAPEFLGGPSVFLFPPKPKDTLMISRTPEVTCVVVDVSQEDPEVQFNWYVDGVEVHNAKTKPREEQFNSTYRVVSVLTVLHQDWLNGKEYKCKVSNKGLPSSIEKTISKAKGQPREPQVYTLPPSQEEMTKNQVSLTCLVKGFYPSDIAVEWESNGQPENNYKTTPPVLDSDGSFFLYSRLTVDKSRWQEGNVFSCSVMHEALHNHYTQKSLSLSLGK
light: DIQMTQSPSSLSASVGDRVTITCRASENIYSYLAWYQQKPGKSPKLLIYNARTLAEGVPSRFSGSGSGTDFTLTISSLQPEDFATYYCQYHSGSPLPFGGGTKVEIKRTVAAPSVFIFPPSDEQLKSGTASVVCLLNNFYPREAKVQWKVDNALQSGNSQESVTEQDSKDSTYSLSSTLTLSKADYEKHKVYACEVTHQGLSSPVTKSFNRGEC
B4 yielded an EC50 in test [7] of 0.056 nM.

B5: anti-PVRIG antibody 151 (antibody, human IgG4 S228P, F234A L235A, V domains shown)
VH: HVQLVESGGGSVQAGGSLRLSCVASASGFTYRPYCMAWFRQAPGKEREAVAGIDIFGGTTYADSVKGRFTASRDNAGFSLFLQMNDLKPEDTAMYYCAAGDSPDGRCPPLGQGLNYWGQGTQVTVSS
notes: no light chain
Consider B5, for which the binding result in test [1] was “no binding”. Further, the 50% effective concentration (EC50) in test [2] was 2.15 nM. For the same molecule, the EC50 in test [3] is 2.43 nM. Further, the “PVRIG reporter gene cell activity EC50” value in test [4] was 0.04 nM. In test [5], the “NK92 killing … (%), 20 nM antibody” value is 35% and the “NK92 killing … (%), 100 nM antibody” value stood at 33%. Further, in test [6], the dissociation constant (Kd) was 0.2 nM, the off-rate constant (koff) worked out at 5.22e-05 s⁻¹ and the association rate constant (kon) amounted to 261000 M⁻¹ s⁻¹.

B6: positive antibody Tab5 (antibody, human IgG4 S228P, kappa, F234A L235A, V domains shown)
VH: EVQLVESGGGVVKPGGSLRLSCAASGFTFGTSSMNWVRQAPGKGLEWVAVISFDGTEIHYADSVKGRFTISRDNSKSTVFLQMNSLRPDDTALYYCAKGSGNIYFYSGMDVWGQGTTVTVSS
VL: DIQMTQSPSTLSASVGDRVTITCRAGQSISGWLAWFQQKPGKAPNLLIYETSTLESGVPSRFSGSGSGTEYTLTISSLQPDDFATYYCQQYYSYPLTFGQGTKVEIKR
notes: Variable regions of CPA.7.021 (WO2016134333A1) on human IgG4 (S228P/F234A/L235A/K447A) and human kappa constant regions
Turning to B6, the binding result in test [1] is “no binding”. Also, in test [2], the concentration for a half-maximal effect (EC50) was determined as 2.86 nM. Also, the “PVRIG reporter gene cell activity EC50” value in test [4] came out at 0.74 nM. Moreover, in test [5], the “NK92 killing … (%), 20 nM antibody” value was found to be 32% and the “NK92 killing … (%), 100 nM antibody” value was 32%. Further, the EC50 in test [7] is 0.789 nM. In test [6], the dissociation constant (Kd) amounted to 0.219 nM.

B7: anti-PVRIG antibody 30 (antibody, human IgG4 S228P, F234A L235A, V domains shown)
VH: HVQLVESGGGSVQAGGSLRLSCEASGYSYSGDCMGWFRRAPGKERDEGVATIDNAGRIKYADSVKGRFTISHGNGKYILYLQMNSLKPEDTDMYYCAAGWTFGGNCSPADWGQGTQVTVSS
notes: no light chain
B7: in test [1], the binding result is “no binding”. Moreover, the EC50 in test [2] stood at 0.26 nM. The EC50 in test [3] was 0.16 nM. Moreover, in test [4], the “PVRIG reporter gene cell activity EC50” value stood at 0.06 nM. Moreover, in test [5], the “NK92 killing … (%), 20 nM antibody” value was found to be 36% and the “NK92 killing … (%), 100 nM antibody” value stood at 39%. In test [6], the Kd came to 0.723 nM, the koff was 0.000205 s⁻¹ and the kon came out at 284000 M⁻¹ s⁻¹.
